These results are taken from paper PMC3991615, “The N-Terminal Domain of the Repressor of Staphylococcus aureus Phage Φ11 Possesses an Unusual Dimerization Ability and DNA Binding Affinity”.

The target of data set [1] is T1, rCI (phage phi11 CI lysogenic repressor) (Staphylococcus aureus phage phi11) (UniProt Q8SDX2).
T1 sequence: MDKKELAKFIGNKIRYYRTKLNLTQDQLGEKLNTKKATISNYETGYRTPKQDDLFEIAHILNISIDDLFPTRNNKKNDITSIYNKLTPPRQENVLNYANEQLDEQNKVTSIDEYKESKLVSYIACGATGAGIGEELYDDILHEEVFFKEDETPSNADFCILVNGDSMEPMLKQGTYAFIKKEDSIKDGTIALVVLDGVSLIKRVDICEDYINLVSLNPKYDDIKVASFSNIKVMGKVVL
The data set is described as follows: EMSA. Particulars: EMSA with ~0.1 nM 32P-DNA, 20 min on ice (0°C) unless 42°C; RNAP assay and protein storage in buffer C (10 mM Tris-HCl pH 8.0, 200 mM NaCl, 1 mM EDTA, 5% …).

The target of data set [2] is T2, rNTD (N-terminal domain of phage phi11 CI repressor) (Staphylococcus aureus phage phi11) (UniProt Q8SDX2).
T2 sequence: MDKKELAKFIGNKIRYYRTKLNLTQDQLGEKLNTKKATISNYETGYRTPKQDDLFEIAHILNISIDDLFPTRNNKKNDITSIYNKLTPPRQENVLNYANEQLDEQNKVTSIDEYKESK
Nature of the data set: EMSA. The settings on record: EMSA with ~0.1 nM 32P-DNA, 20 min on ice (0°C) unless 42°C; RNAP assay and protein storage in buffer C (10 mM Tris-HCl pH 8.0, 200 mM NaCl, 1 mM EDTA, 5% …).

For data set [3], the target named is T2, rNTD (N-terminal domain of phage phi11 CI repressor) (Staphylococcus aureus phage phi11). Nature of the data set: DMS footprinting. The settings on record: EMSA with ~0.1 nM 32P-DNA, 20 min on ice (0°C) unless 42°C; RNAP assay and protein storage in buffer C (10 mM Tris-HCl pH 8.0, 200 mM NaCl, 1 mM EDTA, 5% …).
For data set [4], the target named is recombinant N-terminal domain (NTD) of the Φ11 lysogenic repressor CI (Staphylococcus aureus phage Φ11). The data set is described as follows: SEC; analytical gel filtration, 10 µM protein in buffer C (10 mM Tris-HCl pH 8.0, 200 mM NaCl, 1 mM EDTA, 5% glycerol) with 10 mM β-mercaptoethanol; calibrated with conalbumin, ovalbumin, carbonic anhydrase, cytochrome C.

The target is the same in data set [5]. Nature of the data set: cross-linking; glutaraldehyde (0.1%), 1-5 µM protein, products analysed by 13.5% SDS-PAGE.
Data set [6] addresses Φ11 CI with a C-terminal histidine tag (Staphylococcus aureus phage Φ11). Nature of the data set: SEC; analytical gel filtration, 10 µM protein in buffer C (10 mM Tris-HCl pH 8.0, 200 mM NaCl, 1 mM EDTA, 5% glycerol) with 10 mM β-mercaptoethanol; calibrated with conalbumin, ovalbumin, carbonic anhydrase, cytochrome C.
Data set [7] shares this target. The data set is described as follows: cross-linking; glutaraldehyde (0.1%), 1-5 µM protein, products analysed by 13.5% SDS-PAGE.
For data set [8], the target named is T3, rNTD (N-terminal domain of phage phi11 CI repressor) (Staphylococcus aureus phage phi11, UniProt Q8SDX2 1-118).
T3 sequence: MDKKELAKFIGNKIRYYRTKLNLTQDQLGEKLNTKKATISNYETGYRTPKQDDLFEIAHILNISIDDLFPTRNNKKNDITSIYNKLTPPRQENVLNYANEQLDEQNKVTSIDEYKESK
The data set is described as follows: EMSA; 0°C (on ice); EMSA with ~0.1 nM 32P-DNA, 20 min on ice (0°C) unless 42°C; RNAP assay and protein storage in buffer C (10 mM Tris-HCl pH 8.0, 200 mM NaCl, 1 mM EDTA, 5% glycerol); standard EMSA buffer not printed (per refs 7, 8); native PAGE 6% or 10%. The settings on record: protein: recombinant, tags: C-terminal His6 (8 additional residues), chain copies: 2, label: 32P.

The target in data set [9] is T4, rCI (phage phi11 CI lysogenic repressor) (Staphylococcus aureus phage phi11, UniProt Q8SDX2 1-239).
T4 sequence: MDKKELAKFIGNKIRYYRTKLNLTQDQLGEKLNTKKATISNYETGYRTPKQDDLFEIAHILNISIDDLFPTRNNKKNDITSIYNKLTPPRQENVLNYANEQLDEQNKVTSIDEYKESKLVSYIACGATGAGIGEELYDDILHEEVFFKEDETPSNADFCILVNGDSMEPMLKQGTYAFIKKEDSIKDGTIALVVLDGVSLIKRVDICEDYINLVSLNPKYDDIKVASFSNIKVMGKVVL
The description is as above. The settings on record: protein: recombinant; tags: C-terminal His tag; chain copies: 2; label: 32P; 3' overhang 1 nt (both ends).

Consider “ATTCAACAAAAAAATACACGAAAAGCAAACTTTTATGTTGACTCAAGTACACGTATCGTGTATAGTAGGTTTTGTAAGCGGGAGGTGACAACATGCAATGGAATTTAATAAAGTTGAGAAAAGAAAGAAAGTGTACTCAAGAAGATTTAGGATCC (double strand) [O1O2]”, for which the binding entry in data set [1] and in [2] was “binds” in each case. Consider “CTCGAGCATTTTAACTACGTTTGCAGCTTGCTCGCCACGGTCGCCTTCAACGATGTCGAATTCAACTTTTTGGCCTTCTTCTAATGATTTGTATCCATCTTCAGCGATTGCTGAGAAGTGTACGAATACGTCGCTACCATCTTCTCTTTCGATGAAACCAAAACCTTTTTCTGCATTAAACCATTTAACTGTACCGTTATTCATCCATGGCATG (double strand) [cspC]”, for which the binding result in [2] is on record as “no binding”. With “GGATCCTAAATCTTCTTGAGTACACTTTCTTTCTTTTCTCAACTTTATTAAATTCCATTGCATGTTGTCACCTCCCGCTTACAAAACCTACTATACACGATACGTGTACTTGAGTCAACATAAAAGTTTGCTTTTCGTGTATTTTTTTGTTGAATACCAAAAATAATTGGGTTATACTATAGGTAAATTTAAGGAGGTAAGAAAATGGATAAAAAAGAATTAGCGAAATTTATAGGCAATAAAATCAGATACTATAGAACCAAGAATTC (double strand) [O]”, the binding result in data set [3] and in data set [2] was “binds” throughout. Regarding “recombinant N-terminal domain (NTD) of the Φ11 lysogenic repressor CI (domain or fragment)”, the stoichiometry N in data set [4] and in data set [5] was 2 throughout. Take “Φ11 CI with a C-terminal histidine tag (natural protein)”: the stoichiometry N in data set [6] and in [7] was 2 each time.

B1: O2 (dsDNA)
DNA 1: ATTCAACAAAAAAATACACGAAAAGCAAACTTTTATGTTGACTCAAGTA
DNA 2: TACTTGAGTCAACATAAAAGTTTGCTTTTCGTGTATTTTTTTGTTGAAT
Turning to B1, in data set [8] (blunt), the Kd turned out to be 7.83 ± 0.44 nM.

B2: O1 (dsDNA)
DNA 1: GACTCAAGTACACGTATCGTGTATAGTAGGTTTA
DNA 2: AAACCTACTATACACGATACGTGTACTTGAGTCA
B2: the dissociation constant (Kd) in [8] (3' overhang 1 nt (both ends)) was determined as 3.13 ± 0.51 nM; in data set [9], 3.17 ± 0.75 nM.
